This note sets out measurements from article doi:10.1101/2024.08.08.607148 (bioRxiv, 2024).

Assay in all cases: ELISA
For orientation: In an ELISA, binding on a coated surface is turned into a signal by an enzyme label.

In assay [1] the target is T1, variable region of RIFIN#1 (PF3D7_1254800, 165-274 aa) (P. falciparum, UniProt Q8I4N9).
Assay [2] addresses T1, variable region of RIFIN#1 …. This is another data set of the same source.
Assay [3] deals with extracellular domain (ECD) of human LILRB1 (human, UniProt Q8NHL6 24-461, biotin (NHS-pEG12-biotin) in the competition ELISA).
Chain of extracellular domain (ECD) of human LILRB1 (Q8NHL6 24-461): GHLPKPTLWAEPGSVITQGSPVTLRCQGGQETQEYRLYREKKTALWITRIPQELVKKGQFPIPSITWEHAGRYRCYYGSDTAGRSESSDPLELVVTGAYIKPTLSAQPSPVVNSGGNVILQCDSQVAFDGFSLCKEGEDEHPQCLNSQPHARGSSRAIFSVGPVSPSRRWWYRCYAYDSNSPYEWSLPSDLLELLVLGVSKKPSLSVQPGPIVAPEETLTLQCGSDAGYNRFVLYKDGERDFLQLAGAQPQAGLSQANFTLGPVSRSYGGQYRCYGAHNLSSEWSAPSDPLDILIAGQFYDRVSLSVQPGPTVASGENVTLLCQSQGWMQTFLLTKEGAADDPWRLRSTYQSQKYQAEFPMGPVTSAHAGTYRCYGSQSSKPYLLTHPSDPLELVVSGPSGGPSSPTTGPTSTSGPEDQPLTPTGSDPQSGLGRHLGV

B1: D1D2.v-IgG (LILRB1 D1D2.v-containing antibody on the MDB1 scaffold) (antibody, V domains shown)
VH: QITLKESGPTLVERTQTLTLTCTFSGFSLTTDGLGVGWIRQPPGKALEWLALIYYDDVRRYRPSLKSRLTITKDTSKNRVVLTVTDMDPVDAGTYFCVHASLFNLGSRNVYFRYWGQGTLVSVSS
VL: SYDLTQPPSVSVSPGQTARITCSGDSLARQFASWYQQKPGQSPVLLIYKNIERLSAIPERFSGSTSGTSVTLTISGVQAEDEADYFCQSADDSGSYSLFGTGTRVSVL
The IC50 is the point on the concentration scale where inhibition reaches its midpoint. Low readings indicate greater potency, high ones weaker potency. As a reminder, the Kd is the equilibrium constant for the complex coming apart. A low value points to higher affinity. With B1, it took 20 nM to reach half-maximal inhibition in assay [1] (IC50). In addition, the affinity in assay [2], expressed as Kd, was 6 nM.

B2: variable region of RIFIN#1 (PF3D7_1254800, 165-274 aa) (domain or fragment, P. falciparum, UniProt Q8I4N9 165-274, looked up)
chain: NYETINAFIAKTIEELEGIPGITKLFGAKISQFVTPAVFRKPMSLVETILSEKKKLCLCAANKNELLCRGMNPNVPETLPKKIEVAVNEVLSSVNDTWATATTPTTFFTN
B2 yielded a Kd in assay [3] of around 650 nM.
